# Data: patent US9724426B2, “Agents, uses and methods” (AFFINICON APS, priority 2009, dated 2017)
# Residue numbers refer to the chain shown, from its start.
# B1: cgamma(6)/K8: chimeric heavy chain cgamma(6) paired with humanized light chain K8 (antibody)
# VH: DVQLQESGPGLVKPSQSLSLTCTVTGYSITSDYAWNWIRQFPGNKLEWMGYITYSGITNYNPSLKSQISITRDTSKNQFFLQLNSVTTEDTATYYCVSGTYYFDYWGQGTTLTVSS
# light: DIVMTQSPSSLSASVGDRVTITCRASQSVSSDVAWFQQKPGKSPKPLIYYASSLQSGVPSRFSGSGSGTDFTLTISSLQAEDFAVYFCGQDYTSPRTFGGGTKLEIKRTVAAPSVFIFPPSDEQLKSGTASVVCLLNNFYPREAKVQWKVDNALQSGNSQESVTEQDSKDSTYSLSSTLTLSKADYEKHKVYACEVTHQGLSSPVTKSFNRGEC
# B2: Fab fragment: Fab of KN2/NRY: heavy chain KN2 with P220 mutated to stop, SEQ ID NO: 82, with light chain NRY (antibody)
# heavy: QVQLQESGPGLVKPSETLSLTCTVSGYSITSDYAWNWIRQFPGNKLEWMGYITYSGSTYYNPSLKSRVTISVDTSKNQFSLKLSSVTAADTATYYCVSGTYYFDYWGQGTTLTVSSASTKGPSVFPLAPCSRSTSESTAALGCLVKDYFPEPVTVSWNSGALTSGVHTFPAVLQSSGLYSLSSVVTVPSSSLGTKTYTCNVDHKPSNTKVDKRVESKYG
# light: B1 light with S53N, L54R, Q55Y
# B3: scFv: scFv (VH-15 residue linker-VL), SEQ ID NO: 77, expressed in E. coli and refolded (protein)
# scFv: MDQVQLQESGPGLVKPSETLSLTCTVSGYSITSDYAWNWIRQFPGNKLEWMGYITYSGSTYYNPSLKSRVTISVDTSKNQFSLKLSSVTAADTATYYCVSGTYYFDYWGQGTTLTVSSGGGGSGGGGSGGGGSDIVMTQSPSSLSASVGDRVTITCRASQSVSSDVAWFQQKPGKSPKPLIYYASNRYSGVPSRFSGSGSGTDFTLTISSLQAEDFAVYFCGQDYTSPRTFGGGTKLEIKREQKLISEEDL
# modifications: scFv sequence
# Key:
# [1] = test system: collagen-induced arthritis
# Description: The effect of dexamethasone on arthritis development in the rat CIA model was tested at three dosages (0.01, 0.1 and 1 mg/kg). Dexamethasone was administered intravenously on day 10 (day of disease onset), 13, 16 and 19. Dexamethasone conjugate produced as described in Example 5 was tested at 0.01 mg/kg using the same treatment regimen as for dexamethasone. Treatment with vehicle (PBS/2.5% EtOH) served as negative control. Rats were sacrificed 21 days after immunization.
# Collagen arthritis was induced in 9 weeks old female Lewis rats using a two-step immunization protocol. […]
# Rats were evaluated 6 times per week (once during weekends) for arthritis severity using a macroscopic scoring system of 0-4 for each paw as detailed below: • 0=no signs of arthritis • 0.5=unloading of the paw and/or light redness of ankle joint • 1=redness and mild swelling of the ankle joint • 2=redness and swelling of paw • 3=severe redness and swelling of entire paw including digits • 4=maximally swollen paw, often involvement of multiple joints and extending towards knee joint.
# The total clinical score of an individual rat is defined as the sum of the clinical scores of all four paws for each day. At the end of the study, the cumulative arthritis score was calculated for each rat. […]
# The swelling of the hind paws was measured during weekdays with a laser scan micrometer (Mitutoyo, LSM-503S/6200). […]
# [2] = test system: LPS mediated TNFα stimulation; test: Rat in vivo LPS model; parameters: species or system Lewis rats; settings: i.v., challenged with LPS; 2 hours post LPS
# [3] = biological target: T1, CD163 (Homo sapiens, UniProt Q86VB7); test: ELISA antibody reactivity comparison; assay type: binding
# Description: A nunc maxisorp plate was coated with the following (50 μl/well) over night at 4° C.: 4 μg/ml goat anti-human kappa chain antibody (AbD Serotec, Oxford, UK) and ˜4 μg/ml human CD163 (purified as described in 8). Buffer was carbonate buffer, pH 9.0. Each measurement was made in duplicate.
# 4) After blocking, the primary antibody was added (100 μl per well).
# For CD163 ELISA • 100 μl/well of goat anti human IgG (H&L) HRP 1:6000 in PBS containing 1% BSA. • For Mac2-158 goat anti-mouse HRP 1:2000 in PBS containing 1% BSA is added to the wells 7) Step 1 was repeated 8) The ELISA was developed by adding 75 μl of TMB substrate to each well. Incubation was performed for 3 min. 9) The reaction was stopped by adding 30 μl 2 NH2SO4 to the wells. 10) The plate was read in an ELISA reader at 450 nm.
# Background was measured on wells with no coating and wells with no primary antibody.
# [4] = biological target: T1, CD163; test: Fab fragment activity measured by ELISA; assay type: binding
# Description: A nunc maxisorp plate was coated with ˜1 μg/ml human CD163 (purified as described by Kristiansen, M. et al. ((2001). Identification of the haemoglobin scavenger receptor. Nature 11:409(6817): 198-201)) was added at 50 μl/well and incubated over night at 4° C. Buffer for coating was carbonate, pH 9.0. Each measurement was made in duplicates.
# The primary antibody samples used in ELISA was undiluted supernatant or 30 times concentrated supernatant from transfected cells or antibody standard 100 ng/ml KN2/NRY antibody diluted in PBS containing 1% BSA. The supernatant was concentrated on VIVAspin centrifugal concentrator (10.000 MWCO) (Sigma-Aldrich, Brøondby, Denmark).
# The ELISA steps were as follows: ELISA plates were washed 3 times in PBS and blocked with PBS containing 3% BSA for 1 h. After blocking the primary antibody samples were added to the wells (100 μl/well). 2 fold dilution series were made on all samples and standards (dilutions in PBS containing 1% BSA). The samples were incubated on the plates for 1 h. Subsequently, the plates were washed 3 times in PBS and secondary antibody goat anti human kappa chain HRP (AbD Serotec, Oxford, UK) 1:4000 in PBS containing 1% BSA (100 μl/well) was added to the wells. […] The plates were read in an ELISA reader at 450 nm.
# Background was measured on both wells with no coating and wells with no primary antibody.
# [5] = biological target: T1, CD163; test: scFv ELISA; assay type: binding; settings: two-fold dilution series
# Description: A nunc Maxisorp ELISA plate (NUNC, Roskilde, Denmark) was coated with 50 μl/well of 2 μg/ml of CD163 (purified as described in (2)) over night at 4° C. The coated plate was washed 3 times in PBS and blocked for 1 hour with 3% BSA in PBS. Fractions from scFv purification were tested by adding 100 μl/well of a 1:10 dilution of each sample in 1% BSA, PBS. The refolded protein sample was added directly to the wells (100 μl/well) and two-fold dilution series was made with dilution in 1% BSA in PBS. After 1 hour incubation at 4° C. the plate was washed 3 times in PBS again. Secondary detection was made with a 1 hour incubation of a HRP conjugated anti-His antibody (Sigma-Aldrich, Brøondby, Denmark) (1:4000 diluted in 1% BSA, PBS). After washing 3 times in PBS the ELISA was developed with […] TMB substrate (Invitrogen, Taastrup, Denmark). The reaction was stopped with 40 μl/well of 1 M H2SO4 and the plate was read in an ELISA reader at 450 nm.
# T1 sequence (Q86VB7 42-1156): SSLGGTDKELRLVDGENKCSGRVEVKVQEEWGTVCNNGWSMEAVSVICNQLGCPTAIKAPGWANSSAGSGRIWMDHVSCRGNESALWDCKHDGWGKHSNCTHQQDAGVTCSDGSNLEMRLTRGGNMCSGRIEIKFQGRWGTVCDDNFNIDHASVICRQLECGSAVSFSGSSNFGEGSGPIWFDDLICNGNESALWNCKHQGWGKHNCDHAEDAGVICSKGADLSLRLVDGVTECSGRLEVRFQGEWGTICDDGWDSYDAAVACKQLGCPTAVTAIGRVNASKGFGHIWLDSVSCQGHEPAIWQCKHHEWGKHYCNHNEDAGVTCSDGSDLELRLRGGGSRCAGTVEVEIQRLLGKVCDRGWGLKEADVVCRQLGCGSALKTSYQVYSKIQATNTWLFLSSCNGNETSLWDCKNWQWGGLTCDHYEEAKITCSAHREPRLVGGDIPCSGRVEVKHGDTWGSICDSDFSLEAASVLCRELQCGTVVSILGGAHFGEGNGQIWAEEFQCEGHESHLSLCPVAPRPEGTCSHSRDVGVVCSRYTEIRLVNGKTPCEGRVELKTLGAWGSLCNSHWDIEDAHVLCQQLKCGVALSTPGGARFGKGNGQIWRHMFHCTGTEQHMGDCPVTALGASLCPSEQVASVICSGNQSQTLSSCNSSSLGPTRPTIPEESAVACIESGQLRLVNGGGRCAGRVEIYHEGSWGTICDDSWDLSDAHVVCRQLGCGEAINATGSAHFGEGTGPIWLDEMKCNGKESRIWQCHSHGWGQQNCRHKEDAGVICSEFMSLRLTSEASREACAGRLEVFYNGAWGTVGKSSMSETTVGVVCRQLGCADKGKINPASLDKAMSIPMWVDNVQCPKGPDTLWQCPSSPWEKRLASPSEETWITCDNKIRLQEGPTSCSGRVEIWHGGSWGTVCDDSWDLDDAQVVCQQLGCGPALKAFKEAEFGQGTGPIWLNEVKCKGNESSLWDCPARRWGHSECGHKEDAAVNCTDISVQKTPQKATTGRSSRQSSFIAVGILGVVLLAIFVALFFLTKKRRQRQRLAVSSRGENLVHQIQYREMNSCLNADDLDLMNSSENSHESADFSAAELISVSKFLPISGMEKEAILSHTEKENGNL
molecule,measurement,setting,value
C[C@@H]1C[C@H]2[C@@H]3CCC4=CC(=O)C=C[C@]4(C)[C@@]3(F)[C@@H](O)C[C@]2(C)[C@@]1(O)C(=O)CO [dexamethasone],spleen and liver weights compared to the vehicle group,"[1]; 0.01, 0.1 and 1 mg/kg groups",No significant differences
same,thymus weight compared to the vehicle group,"[1]; 0.1 and 1 mg/kg groups, at sacrifice day 21",significantly decreased
"CC1(C)O[C@@H]2C[C@H]3[C@@H]4C[C@H](F)C5=CC(=O)C=C[C@]5(C)[C@@]4(F)[C@@H](O)C[C@]3(C)[C@]2(C(=O)CO)O1 [fluocinolone, Fluocinolone acetonide]","TNFα level, lower compared to vehicle",[2],5 times
B1,amount of antibody in sample to obtain the same reactivity as cgamma(6)/NRY,[3],approximately twice as much antibody
same,reactivity towards CD163 in ELISA,[3]; supernatant from transiently transfected CHO-S cells,almost identical
B2,ELISA signal and dilution series,"[4]; 30× concentrated supernatant, standard 100 ng/ml KN2/NRY",comparable to the standard dilution series
same,ELISA signal,"[4]; undiluted, non-concentrated supernatant",very small signal
B3,dilution down to which signals were detected,[5],128 fold
